The source of these data is patent US20260151494A1 (ARO BIOTHERAPEUTICS, published 2026).

Numbering of substitutions follows the chain as printed.

The target in test [1] is T1, apical domain of cynomolgus CD71 (cynomolgus, UniProt A0A2K5X958 189-383).
T1 construct: domain: apical domain; also called Cyno apical domain
Put plainly: primary ELISA, signal ratio to HSA.

Test [2] has as its target T2, human CD71 extracellular domain (human, UniProt P02786 89-760).
T2 construct: also called hCD71; human CD71-ECD
As to the kind of experiment: primary ELISA, signal ratio to HSA. In general terms: ELISA stands for enzyme-linked immunosorbent assay.

In test [3] the target is T1, apical domain of cynomolgus CD71. Put plainly: primary ELISA. Further: test concentration or dose not given here.
Test [4] has as its target T2, human CD71 extracellular domain. Put plainly: primary ELISA. Further: test concentration or dose not given here.

T1 sequence (A0A2K5X958 entry or part of it): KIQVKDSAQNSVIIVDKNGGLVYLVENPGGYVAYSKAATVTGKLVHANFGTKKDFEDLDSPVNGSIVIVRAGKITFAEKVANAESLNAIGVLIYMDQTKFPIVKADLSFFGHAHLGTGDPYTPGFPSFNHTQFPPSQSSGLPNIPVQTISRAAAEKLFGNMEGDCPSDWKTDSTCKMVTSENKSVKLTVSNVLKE
T2 sequence (P02786 89-760): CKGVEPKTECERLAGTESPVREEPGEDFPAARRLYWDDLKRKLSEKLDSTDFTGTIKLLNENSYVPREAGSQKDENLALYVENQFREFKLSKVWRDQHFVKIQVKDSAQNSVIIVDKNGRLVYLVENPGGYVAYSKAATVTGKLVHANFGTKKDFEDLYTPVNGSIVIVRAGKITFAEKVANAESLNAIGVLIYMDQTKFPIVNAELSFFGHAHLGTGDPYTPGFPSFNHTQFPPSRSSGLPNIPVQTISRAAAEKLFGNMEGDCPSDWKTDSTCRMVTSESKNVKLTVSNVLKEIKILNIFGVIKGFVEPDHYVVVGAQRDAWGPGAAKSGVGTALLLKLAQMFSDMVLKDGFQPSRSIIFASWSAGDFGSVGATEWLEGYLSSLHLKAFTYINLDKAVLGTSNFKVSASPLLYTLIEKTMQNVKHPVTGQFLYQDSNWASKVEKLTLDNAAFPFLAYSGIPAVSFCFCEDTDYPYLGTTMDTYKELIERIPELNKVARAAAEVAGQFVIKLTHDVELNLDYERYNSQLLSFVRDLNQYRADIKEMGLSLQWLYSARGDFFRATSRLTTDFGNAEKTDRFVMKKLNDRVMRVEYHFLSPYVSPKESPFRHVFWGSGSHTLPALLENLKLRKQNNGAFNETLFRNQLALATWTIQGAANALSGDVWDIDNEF

B1: CD71-binding FN3 domain of SEQ ID NO: 133 (designed binder)
chain: MSLPAPKNLVVSRVTEDSARLSWTAPDAAFDSFKIKYAEYDRYGEAIALFVPGSERSYDLTGLKPGTEYFVHIDGVKGGTDSQPLVASFTT
Regarding B1, the “Cyno apical domain:HSA” value in test [1] was found to be 387. For the same molecule, the “hCD71:HSA” value in test [2] was determined as 138. The figures for the RLU in test [3] and in test [4] were 5.11e+06 RLU and 1.83e+06 RLU, respectively.

B2: CD71-binding FN3 domain of SEQ ID NO: 136 (designed binder)
chain: MSLPAPKNLVVSRVTEDSARLSWTAPDAAFDSFEIDYVEFIFTGEAIGLIVPGSERSYDLTGLKPGTEYWVTIAGVKGGEWSTPLQAFLTT
Regarding B2, the “Cyno apical domain:HSA” value in test [1] stood at 298. In addition, the “hCD71:HSA” value in test [2] amounted to 273. The RLU turned out to be 4.46e+06 RLU in test [3] and 4.08e+06 RLU in test [4].

B3: CD71-binding FN3 domain of SEQ ID NO: 153 (designed binder)
chain: MSLPAPKNLVVSRVTEDSARLSWTAPDAAFDSFYIAYAEPRPDGEAIVLAVPGSERSYDLTGLKPGTEYSVLIHGVKGGLLSSPLGADFTT
Consider B3, for which, in test [1], the “Cyno apical domain:HSA” value is 127. In addition, in test [2], the “hCD71:HSA” value was 141. The RLU was determined as 4.11e+06 RLU in test [3] and 4.57e+06 RLU in test [4].

B4: CD71-binding FN3 domain of SEQ ID NO: 125 (designed binder)
chain: B3 chain with V48I, A50L, G86H, D88H
On to B4, for which the “Cyno apical domain:HSA” value in test [1] was 153. In test [2], the “hCD71:HSA” value came to 109. Moreover, the RLU is 5.09e+06 RLU in test [3] and 3.64e+06 RLU in test [4].

B5: CD71-binding FN3 domain of SEQ ID NO: 165 (designed binder)
chain: B3 chain with V48L, A50E, T61A, D88E
As for B5, the “Cyno apical domain:HSA” value in test [1] is 259. Further, the “hCD71:HSA” value in test [2] came to 305. Besides, the RLU amounted to 3.62e+06 RLU in test [3] and 4.25e+06 RLU in test [4].

B6: CD71-binding FN3 domain of SEQ ID NO: 129 (designed binder)
chain: MGGSLPAPKNLVVSRVTEDSARLSWTAPDAAFDSFEIGYFENLYLGEAIVLTVPGSERSYDLTGLKPGTEYWVQIGGVKGGNWSAPLSAIFTT
B6: the “Cyno apical domain:HSA” value in test [1] is 313. Besides, the “hCD71:HSA” value in test [2] came to 159. Moreover, the RLU in test [3] was 4.89e+06 RLU; in test [4], 2.49e+06 RLU.

B7: CD71-binding FN3 domain of SEQ ID NO: 123 (designed binder)
chain: MSLPAPKNLVVSRVTEDSARLSWTAPDAAFDSFAIRYWELRATGEAIPLSVPGSERSYDLTGLKPGTEYHVAISGVKGGKSSYPLRASFTT
For the molecule B7, the “Cyno apical domain:HSA” value in test [1] was 125. Moreover, the “hCD71:HSA” value in test [2] amounted to 108. Besides, the RLU in test [3] came out at 5.2e+06 RLU; in test [4], 4.51e+06 RLU.

B8: CD71-binding FN3 domain of SEQ ID NO: 134 (designed binder)
chain: MSLPAPKNLVVSRVTEDSARLSWTAPDAAFDSFDINYWENESGGEAIALFVPGSERSYDLTGLKPGTEYLVTIAGVKGGWWSKPLYATFTT
B8: in test [1], the “Cyno apical domain:HSA” value is 245. Also, the “hCD71:HSA” value in test [2] is 192. Moreover, the RLU in test [3] was determined as 5.77e+06 RLU; in test [4], 4.52e+06 RLU.

B9: CD71-binding FN3 domain of SEQ ID NO: 121 (designed binder)
chain: MSLPAPKNLVVSRVTEDSARLSWTAPDAAFDSFFIGYLEPQPPGEAITLYVPGSERSYDLTGLKPGTEYNVTIQGVKGGFPSAPLSAIFTT
As to B9, in test [1], the “Cyno apical domain:HSA” value is 125. Further, the “hCD71:HSA” value in test [2] was found to be 109. The RLU is 6.22e+06 RLU in test [3] and 5.42e+06 RLU in test [4].

B10: CD71-binding FN3 domain of SEQ ID NO: 140 (designed binder)
chain: B9 chain with T48H, A83M
For the molecule B10, in test [1], the “Cyno apical domain:HSA” value is 199. Moreover, the “hCD71:HSA” value in test [2] came to 163. The RLU worked out at 7.01e+06 RLU in test [3] and 5.72e+06 RLU in test [4].

B11: CD71-binding FN3 domain of SEQ ID NO: 137 (designed binder)
chain: B9 chain with A83D, S86V, I88H
Consider B11, for which the “Cyno apical domain:HSA” value in test [1] stood at 218. In addition, the “hCD71:HSA” value in test [2] turned out to be 257. The RLU in test [3] was 5.96e+06 RLU; in test [4], 7.03e+06 RLU.

B12: CD71-binding FN3 domain of SEQ ID NO: 127 (designed binder)
chain: B9 chain with Y50L, A83G, S86Q, I88S
As for B12, the “Cyno apical domain:HSA” value in test [1] was determined as 259. For the same molecule, the “hCD71:HSA” value in test [2] turned out to be 188. In addition, the RLU is 6.52e+06 RLU in test [3] and 4.73e+06 RLU in test [4].

B13: CD71-binding FN3 domain of SEQ ID NO: 135 (designed binder)
chain: B9 chain with P42S, T48A, A83E, S86I, I88N
As for B13, the “Cyno apical domain:HSA” value in test [1] was determined as 232. In test [2], the “hCD71:HSA” value came to 224. Besides, the RLU in test [3] came to 6.07e+06 RLU; in test [4], 5.86e+06 RLU.

B14: CD71-binding FN3 domain of SEQ ID NO: 145 (designed binder)
chain: B9 chain with T48A, Y50L, A83H, I88K
Consider B14, for which the “Cyno apical domain:HSA” value in test [1] was determined as 196. Besides, the “hCD71:HSA” value in test [2] amounted to 158. Further, the values for the RLU in test [3] and in test [4] were 6.36e+06 RLU and 5.14e+06 RLU, respectively.

B15: CD71-binding FN3 domain of SEQ ID NO: 147 (designed binder)
chain: B9 chain with T48E, Y50F, A83G, S86I, I88S
B15: the “Cyno apical domain:HSA” value in test [1] was determined as 208. The “hCD71:HSA” value in test [2] is 173. The figures for the RLU in test [3] and in test [4] were 6.67e+06 RLU and 5.56e+06 RLU, respectively.

B16: CD71-binding FN3 domain of SEQ ID NO: 138 (designed binder)
chain: B9 chain with A46V, T48H, Y50F, A83M
In the case of B16, the “Cyno apical domain:HSA” value in test [1] stood at 275. Moreover, in test [2], the “hCD71:HSA” value turned out to be 246. In addition, the RLU amounted to 6.59e+06 RLU in test [3] and 5.91e+06 RLU in test [4].

B17: CD71-binding FN3 domain of SEQ ID NO: 143 (designed binder)
chain: MSLPAPKNLVVSRVTEDSARLSWTAPDAAFDSFAIQYVEVIGSGEAIELIVPGSERSYDLTGLKPGTEYHVYIDGVKGGKDSKPLYAGFTT
As to B17, in test [1], the “Cyno apical domain:HSA” value was found to be 142. In addition, in test [2], the “hCD71:HSA” value came out at 94. Besides, the values for the RLU in test [3] and in test [4] were 4.41e+06 RLU and 2.91e+06 RLU, respectively.

B18: CD71-binding FN3 domain of SEQ ID NO: 128 (designed binder)
chain: MSSLPAPKNLVVSRVTEDSARLSWTAPDAAFDSFEIGYFENLYLGEAIVLTVPGSERSYDLTGLKPGTEYWVQIGGVKGGNWSAPLSAIFTT
Regarding B18, the “Cyno apical domain:HSA” value in test [1] came to 259. Besides, the “hCD71:HSA” value in test [2] was 215. Also, the figures for the RLU in test [3] and in test [4] were 5.56e+06 RLU and 4.62e+06 RLU, respectively.

B19: CD71-binding FN3 domain of SEQ ID NO: 185 (designed binder)
chain: B18 chain with S2G, G37S, F39W, N41H, L42T, Y43F, L44N, V49I, T51F
B19: the “Cyno apical domain:HSA” value in test [1] turned out to be 267. The “hCD71:HSA” value in test [2] was determined as 148. Further, the RLU turned out to be 4.08e+06 RLU in test [3] and 2.26e+06 RLU in test [4].

B20: CD71-binding FN3 domain of SEQ ID NO: 142 (designed binder)
chain: MSLPAPKNLVVSRVTEDSARLSWTASDAAFDSFHIWYFEKANEGEAIPLVVPGSERSYDLTGLKPGTEYDVDIGGVKGGAWSIPLGARFTT
On to B20, for which the “Cyno apical domain:HSA” value in test [1] stood at 95. Further, the “hCD71:HSA” value in test [2] stood at 65. Besides, the RLU in test [3] came to 5.27e+06 RLU; in test [4] it was 3.57e+06 RLU.
